Reference: the supplement of paper PMC7877785
± gives the uncertainty stated by the source.

Test: self-splicing fitness, log relative to wild type (ln ratio); higher = more splicing; Tetrahymena group I intron in knt gene, E. coli kanamycin selection, DiMSum; sequences stand for … in CUCUCU…GGAGGGAAAAGUUAUCAGGCAUGCACCUGGUAGCUAGUCUUUAAACCAAUAGAUUGCAUCGGUUUAAAAGGCAAGACCGUCAAAUUGCGGGAAAGGGGUCAACAGCCGUUCAGUACCAAGUCUCAGGGGAAACUUUGAGAUGGCCUUGCAAAGGGUAUGGUAAUAAGCUGACGGACAUGGUCCUAACCACGCAGCCAAGUCCUAAGUCAACAGAUCUUCUGUUGAUAUGGAUGCAGUUCACAGACUAAAUGUCGGUCGGGGAAGAUGUAUUCUUCUCAUAAGAUAUAGUCGGACCUCUCCUUAAUGGGAGCUAGCGGAUGAAGUGAUGCAACACUGGAGCCGCUGGGAACUAAUUUGUAUGCGAAAGUAUAUUGAUUAGUUUUGGAGUACUCGUGGUCG
In short: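 Library with all eight P1ex-region intron nucleotides randomised, intron inside the knt kanamycin-resistance gene on pET-22b(+), in E. coli BL21(DE3). Cells grew overnight at 37°C or 30°C on LB agar with or without 25 μg/mL kanamycin (plus 100 μg/mL carbenicillin, 50 μM IPTG, 0.2% rhamnose), in six replicate transformations. Pooled colonies were amplicon-sequenced on Illumina HiSeq 2500. DiMSum fitness is the error-weighted combination of wild-type-normalised replicate fold changes, kanamycin versus none.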

Sequence | self-splicing fitness (ln) (30 °C) | self-splicing fitness (ln) (37 °C)
UGUCAGCAAUAUUACGCUCA | 0.0629 ± 0.11 | -0.236 ± 0.11
UGAGAGCAAUAUUACGUUCU | -3.3 ± 0.25 | -2.03 ± 0.27
GUUAAGCAAUAUUACGUCUG | -1.38 ± 0.098 | -1.3 ± 0.13
CUUGAGCAAUAUUACGAAGU | -3.67 ± 0.33 | -3.38 ± 0.35
UGAUAGCAAUAUUACGUUCC | -1.67 ± 0.24 | -1.1 ± 0.4
GCUAAGCAAUAUUACGCAAC | -2.35 ± 0.42 | -0.352 ± 0.47
UCCCAGCAAUAUUACGUGUA | 0.0644 ± 0.061 | -0.0313 ± 0.073
AAAAAGCAAUAUUACGAGAG | -2.88 ± 0.11 | -1.95 ± 0.1
UUACAGCAAUAUUACGCAAC | -3.55 ± 0.33 | -2.32 ± 0.27
GAGCAGCAAUAUUACGAAGC | -3.93 ± 0.25 | -2.21 ± 0.15
CUCAAGCAAUAUUACGAACA | -3.45 ± 0.44 | -0.994 ± 0.31
AAUGAGCAAUAUUACGUACA | -2.3 ± 0.36 | -3.21 ± 0.33
UGCGAGCAAUAUUACGCAAU | -3.57 ± 0.18 | -2.72 ± 0.14
GCAAAGCAAUAUUACGACAC | -0.783 ± 0.099 | -0.461 ± 0.13
UGUCAGCAAUAUUACGGGGA | -1.32 ± 0.061 | -0.476 ± 0.07
CCAAAGCAAUAUUACGUUUA | -3.26 ± 0.17 | -2.63 ± 0.17
GAAAAGCAAUAUUACGAAGA | -2.88 ± 0.18 | -1.34 ± 0.13
CUCCAGCAAUAUUACGUACG | -1.82 ± 0.11 | -0.463 ± 0.12
UACCAGCAAUAUUACGGUUA | -0.306 ± 0.063 | 0.23 ± 0.076
CGGAAGCAAUAUUACGUCUA | -0.422 ± 0.097 | -0.659 ± 0.076
AUGGAGCAAUAUUACGCUCG | -1.58 ± 0.14 | -0.952 ± 0.18
GGGAAGCAAUAUUACGGGGA | -1.49 ± 0.2 | -2.65 ± 0.29
GAAGAGCAAUAUUACGCCUC | -3.27 ± 0.32 | -2.96 ± 0.32
GUUGAGCAAUAUUACGCGCA | -1.02 ± 0.2 | -0.636 ± 0.24

Sequence | self-splicing fitness (ln) (30 °C) | self-splicing fitness (ln) (37 °C)
CGGGAGCAAUAUUACGGUCA | -3.17 ± 0.32 | -1.93 ± 0.28
GAUUAGCAAUAUUACGUUUU | -3.88 ± 0.28 | -1.59 ± 0.16
CGGUAGCAAUAUUACGCGCA | -1.16 ± 0.14 | -0.13 ± 0.15
GGGAAGCAAUAUUACGUAAG | -1.09 ± 0.086 | -1.14 ± 0.13
GCCCAGCAAUAUUACGGCUA | -1.1 ± 0.095 | -0.549 ± 0.1
GAUGAGCAAUAUUACGGGAU | – | -2.36 ± 0.42
ACCUAGCAAUAUUACGGCGC | -0.607 ± 0.097 | 0.63 ± 0.13
CUACAGCAAUAUUACGUACA | -1.78 ± 0.17 | -1.29 ± 0.2
AUCGAGCAAUAUUACGGAUA | -3.67 ± 0.33 | -1.92 ± 0.25
GGGCAGCAAUAUUACGUCAU | -0.717 ± 0.066 | 0.195 ± 0.076
UGUUAGCAAUAUUACGGACG | -0.811 ± 0.15 | -0.257 ± 0.17
GAUAAGCAAUAUUACGCAUA | -0.919 ± 0.13 | -0.783 ± 0.18
AAGAAGCAAUAUUACGUUAA | -2.77 ± 0.16 | -0.841 ± 0.11
CGCAAGCAAUAUUACGAGUA | -2.53 ± 0.14 | -0.869 ± 0.096
CCCGAGCAAUAUUACGACUG | -4.27 ± 0.22 | -2.56 ± 0.2
GGUCAGCAAUAUUACGCGCA | -0.219 ± 0.13 | -0.27 ± 0.12
GGGAAGCAAUAUUACGCGCG | -0.57 ± 0.13 | -0.552 ± 0.14
UAAUAGCAAUAUUACGUAGA | -3.52 ± 0.18 | -1.98 ± 0.17
CUGUAGCAAUAUUACGUGCG | -1.38 ± 0.08 | -0.547 ± 0.092
UAUUAGCAAUAUUACGGCUA | -0.404 ± 0.15 | 0.399 ± 0.14
CAAAAGCAAUAUUACGAAAG | -0.791 ± 0.077 | -0.705 ± 0.097
UGGAAGCAAUAUUACGUACU | -0.516 ± 0.094 | -0.023 ± 0.098
GAUGAGCAAUAUUACGCUUC | -4.04 ± 0.43 | –
